The values that follow come from the supplement of paper PMC9732359.

The data set can be described thus: protein stability index of a GFP-peptide fusion (yeast GPS) (PSI 1-4); higher = more stable; sorted into four equal gates, so the index is relative within each strain. The gist of the method:
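Peptides tiling yeast proteins in 17-residue segments were fused downstream of GFP, with Cherry expressed from the same plasmid. As a pooled library in yeast, mid-log cultures grown in leucine-free medium were sorted into four equal gates by GFP/Cherry fluorescence ratio. Gate plasmids were PCR-amplified and Illumina-sequenced, and barcodes linked reads to strains. Each peptide received a protein stability index equal to the sum of each gate's read frequency times its gate number.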

± gives the uncertainty stated by the source.

Consider GKPSFVFGASDKQAEGT [YOR098C/NUP1], for which the protein stability index runs as follows: (doa10∆) 3.33 ± 0.13; (pdr5∆) 3.07 ± 0.12; (san1∆) 3.07 ± 0.12; (ubr1∆) 3.29 ± 0.087.

On to RSLRATAEERVGRRAAN [RPL15A], for which the protein stability index (doa10∆) stood at 3.56 ± 0.24, the protein stability index (pdr5∆) was 3.52 ± 0.19, the protein stability index (san1∆) was determined as 3.03 ± 0.2 and the protein stability index (ubr1∆) worked out at 2.95 ± 0.1.

Regarding YQMQSNYESVFTYNKFL [YIL149C/MLP2], the protein stability index is 1.29 ± 0.043 (doa10∆), 1.23 ± 0.028 (pdr5∆), 1.55 ± 0.14 (san1∆) and 1.5 ± 0.048 (ubr1∆).

SNSTPNANQQFLPFNNS [SWI1]: the protein stability index came out at 3.25 ± 0.072 (doa10∆), 3.19 ± 0.058 (pdr5∆), 2.96 ± 0.059 (san1∆) and 2.94 ± 0.052 (ubr1∆).

For STTQEILEFITAAQVAN [RPC34], the protein stability index (doa10∆) turned out to be 2.65 ± 0.1, the protein stability index (pdr5∆) is 1.71 ± 0.056, the protein stability index (san1∆) came out at 1.9 ± 0.088 and the protein stability index (ubr1∆) worked out at 1.19 ± 0.048.

Consider DGLEKAAFNGVTFKDKY [FAS2], for which the protein stability index is, setting by setting: (doa10∆) 1.94 ± 0.083; (pdr5∆) 1.57 ± 0.096; (san1∆) 1.85 ± 0.14; (ubr1∆) 2.09 ± 0.12.

Regarding QGKSKLIIIAANTPVLR [RPL30], the protein stability index is, setting by setting: (doa10∆) 2.91 ± 0.093; (pdr5∆) 3.08 ± 0.12; (san1∆) 2.96 ± 0.065; (ubr1∆) 2.99 ± 0.078.

Turning to TQYKAGKASLFAQGKRR [RPL42A], the protein stability index (doa10∆) was 3.35 ± 0.089, the protein stability index (pdr5∆) was determined as 3.04 ± 0.07, the protein stability index (san1∆) was found to be 3.1 ± 0.097 and the protein stability index (ubr1∆) came out at 3.14 ± 0.1.

Turning to SRTFDKYSKLVDNVTLE [SRP72], the protein stability index (doa10∆) was 3.37 ± 0.12, the protein stability index (pdr5∆) was determined as 3.36 ± 0.1, the protein stability index (san1∆) worked out at 3.44 ± 0.094 and the protein stability index (ubr1∆) was found to be 3.3 ± 0.1.

In the case of EQSELLKAQITSLKCLV [SNF2], the protein stability index reads like this: (doa10∆) 1.92 ± 0.049; (pdr5∆) 1.83 ± 0.048; (san1∆) 2.16 ± 0.074; (ubr1∆) 1.99 ± 0.042.

For the sequence FEFQYLTIGVKFFMKHG [SRB5], the protein stability index (doa10∆) turned out to be 1.18 ± 0.046, the protein stability index (pdr5∆) was 1.34 ± 0.047, the protein stability index (san1∆) was 1.21 ± 0.066 and the protein stability index (ubr1∆) turned out to be 1.18 ± 0.035.

For ELALIEEAYDNPHDTLN [PRP8], the protein stability index reads like this: (doa10∆) 3.32 ± 0.088; (pdr5∆) 3.3 ± 0.077; (san1∆) 3.51 ± 0.076; (ubr1∆) 3.41 ± 0.07.

For the sequence KERSIVVGRTTRSNPPF [REC8], the protein stability index was 2.7 ± 0.055 (doa10∆), 2.7 ± 0.057 (pdr5∆), 2.57 ± 0.081 (san1∆) and 2.65 ± 0.065 (ubr1∆).

For MNIKPVQKQTRAGQRTR [RPS2], the protein stability index was 2.67 ± 0.1 (doa10∆), 2.81 ± 0.11 (pdr5∆), 1.92 ± 0.089 (san1∆) and 2.58 ± 0.073 (ubr1∆).

Turning to EQLKEQMEDMEESINEF [SMC4], the protein stability index came to 3.17 ± 0.21 (doa10∆), 3.2 ± 0.1 (pdr5∆) and 3.17 ± 0.048 (san1∆).

With AFLALVDAGIALNSMCA [RRP46], the protein stability index is, setting by setting: (doa10∆) 2.27 ± 0.096; (pdr5∆) 2.69 ± 0.11; (san1∆) 1.7 ± 0.08; (ubr1∆) 2.59 ± 0.076.

Turning to LFGMCESLYEPNLEPED [PUP3], the protein stability index is, setting by setting: (doa10∆) 2.77 ± 0.19; (pdr5∆) 3.53 ± 0.2; (san1∆) 3.32 ± 0.081; (ubr1∆) 3.27 ± 0.1.

Turning to DVECIKAKSHFTNIISR [YJL039C/NUP192], the protein stability index is 3.04 ± 0.092 (doa10∆), 3.1 ± 0.098 (pdr5∆), 2.73 ± 0.078 (san1∆) and 2.97 ± 0.056 (ubr1∆).

Turning to NDFFDNGDNLYGNDEEV [RPN4], the protein stability index by setting is: (doa10∆) 1.21 ± 0.2; (pdr5∆) 1.62 ± 0.29; (ubr1∆) 1.05 ± 0.067.

Consider HLDSFNYFVDTDLKKII [RET1], for which the protein stability index by setting is: (doa10∆) 2.69 ± 0.094; (pdr5∆) 2.85 ± 0.08; (san1∆) 2.67 ± 0.1; (ubr1∆) 2.64 ± 0.038.

As for PTETYSDVGGLDKQIEE [RPT5], the protein stability index turned out to be 3.36 ± 0.21 (doa10∆), 3.35 ± 0.11 (pdr5∆), 3.12 ± 0.068 (san1∆) and 3.21 ± 0.13 (ubr1∆).

For the sequence ERNASEVRDATLNNIFR [GRR1], the protein stability index (doa10∆) stood at 3.36 ± 0.17, the protein stability index (san1∆) is 3.41 ± 0.19 and the protein stability index (ubr1∆) came out at 3.53 ± 0.16.

On to GSTTIEKKNDENSTSNS [YLR335W/NUP2], for which the protein stability index by setting is: (doa10∆) 3.1 ± 0.085; (pdr5∆) 3.18 ± 0.097; (san1∆) 3.18 ± 0.06; (ubr1∆) 3.17 ± 0.044.

As to PITSETAMKKVEDGNIL [RPL25], the protein stability index runs as follows: (doa10∆) 3.05 ± 0.16; (pdr5∆) 3.18 ± 0.095; (san1∆) 3.12 ± 0.22; (ubr1∆) 3.24 ± 0.15.

Regarding FVRGDSKIFRFQNSKSA [RPL24A], the protein stability index was found to be 2.31 ± 0.053 (doa10∆), 2.63 ± 0.057 (pdr5∆), 2.31 ± 0.059 (san1∆) and 2.43 ± 0.051 (ubr1∆).
